One molecule from patent US20160002338A1 (Hoffmann-La Roche, published 2016) can be followed below.

Test in all cases: SPR Biacore T200, antibody captured, 25 C
One test concerns the target T1, TtSlyDcys-Her3.
T1 chain: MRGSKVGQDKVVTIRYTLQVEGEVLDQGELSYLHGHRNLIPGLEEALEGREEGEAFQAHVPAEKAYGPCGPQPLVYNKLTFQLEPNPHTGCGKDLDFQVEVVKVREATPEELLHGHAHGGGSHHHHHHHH
The procedure:
(§1) A Biacore T200 instrument (GE Healthcare) was mounted with a CM5 series sensor. The sensor was normalized in HBS-ET buffer (10 mM HEPES pH 7.4, 150 mM NaCl, 3 mM EDTA, 0.05% w/v Tween 20) according to the manufacturer's instructions. The sample buffer was the system buffer supplemented with 1 mg/ml CMD (Carboxymethyldextran, Sigma #86524). The system operated at 25° C. 6500 RU RAM-Fey (relative units of Fey-fragment RamIgG, GE Healthcare) were immobilized according to the manufacturer's instructions using amine coupling EDC/NHS chemistry on all four flow cells. The sensor was deactivated using 1M ethanolamine. […] Concentration dependent kinetics were measured. […] All analytes were injected for 5 min association time and 10 min dissociation time at 100 μl/min flow rate. The sensor capture system was regenerated by a 3 min injection at 10 μl/min of 10 mM glycine pH 1.7. Where possible kinetic data was evaluated using the Biacore T200 evaluation software.

In the next test the target is T2, HER3 ECD-HRG complex (human, UniProt P21860 20-643).
T2 construct: also called Heregulin/Her-3 ECD
The procedure:
as §1

For a further test, the target named is T3, TtSlyDcas.
T3 construct: control scaffold without insert; N-terminal Met may be present or not
T3 chain: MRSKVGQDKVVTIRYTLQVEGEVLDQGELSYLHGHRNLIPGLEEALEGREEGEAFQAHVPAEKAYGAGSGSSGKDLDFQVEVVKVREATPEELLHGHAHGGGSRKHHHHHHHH
Here is the method: as §1

Test [1] addresses T4, human recombinant HER3 ECD (human, UniProt P21860 20-643).
T4 construct: 68 kDa; also called human-Her3-ECD; full length Her3 ECD
Here is the method: as §1

The next test has as its target T5, HER4 ECD-HRG complex (human, UniProt Q15303 26-651).
T5 construct: HER4 ECD preincubated with a 5-fold molar excess of Heregulin; also called HER-4-ECD-RG
T5 sequence 1: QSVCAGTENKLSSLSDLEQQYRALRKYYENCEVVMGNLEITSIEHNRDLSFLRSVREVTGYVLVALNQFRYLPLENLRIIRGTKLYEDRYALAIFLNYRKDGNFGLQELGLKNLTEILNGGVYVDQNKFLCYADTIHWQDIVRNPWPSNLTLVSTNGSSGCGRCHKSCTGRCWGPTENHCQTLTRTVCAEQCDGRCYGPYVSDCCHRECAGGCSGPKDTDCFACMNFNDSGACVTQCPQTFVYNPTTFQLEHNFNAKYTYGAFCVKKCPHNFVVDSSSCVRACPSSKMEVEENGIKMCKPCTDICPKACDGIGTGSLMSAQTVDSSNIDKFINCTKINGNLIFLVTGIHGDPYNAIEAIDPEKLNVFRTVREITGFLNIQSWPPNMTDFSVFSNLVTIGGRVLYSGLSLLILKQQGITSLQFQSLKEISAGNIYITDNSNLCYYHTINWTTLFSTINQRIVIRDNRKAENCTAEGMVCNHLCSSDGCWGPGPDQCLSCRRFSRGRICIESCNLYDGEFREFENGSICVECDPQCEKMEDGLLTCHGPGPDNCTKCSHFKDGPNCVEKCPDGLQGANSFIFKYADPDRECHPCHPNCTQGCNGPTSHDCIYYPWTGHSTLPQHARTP
T5 sequence 2: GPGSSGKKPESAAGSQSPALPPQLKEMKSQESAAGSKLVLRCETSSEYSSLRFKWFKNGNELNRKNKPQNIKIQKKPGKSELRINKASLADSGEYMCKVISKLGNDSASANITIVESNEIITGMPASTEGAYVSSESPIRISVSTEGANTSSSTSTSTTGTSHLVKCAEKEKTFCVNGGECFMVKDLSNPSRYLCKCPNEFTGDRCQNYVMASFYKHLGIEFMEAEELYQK
Here is the method: as §1

T4 sequence (P21860 20-643): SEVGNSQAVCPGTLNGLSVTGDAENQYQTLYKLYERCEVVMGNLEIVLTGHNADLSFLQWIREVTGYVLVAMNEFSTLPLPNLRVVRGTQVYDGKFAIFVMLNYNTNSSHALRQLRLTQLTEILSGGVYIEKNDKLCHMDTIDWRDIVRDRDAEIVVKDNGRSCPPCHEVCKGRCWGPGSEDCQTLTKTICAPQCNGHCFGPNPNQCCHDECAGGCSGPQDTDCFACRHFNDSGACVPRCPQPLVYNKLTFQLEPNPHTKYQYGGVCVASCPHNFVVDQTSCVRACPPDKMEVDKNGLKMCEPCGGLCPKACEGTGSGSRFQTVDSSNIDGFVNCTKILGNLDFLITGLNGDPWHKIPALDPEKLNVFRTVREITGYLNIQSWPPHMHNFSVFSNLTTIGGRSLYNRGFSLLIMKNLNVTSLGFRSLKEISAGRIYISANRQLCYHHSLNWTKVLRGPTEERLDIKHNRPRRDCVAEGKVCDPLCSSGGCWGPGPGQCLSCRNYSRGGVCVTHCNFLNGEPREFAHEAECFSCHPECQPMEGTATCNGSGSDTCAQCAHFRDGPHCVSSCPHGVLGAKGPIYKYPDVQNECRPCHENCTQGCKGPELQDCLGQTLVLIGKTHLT
T2 sequence (P21860 20-643 limits assumed, one chain of several): as the sequence (P21860 20-643) above

B1: anti-HER3/HER4 antibody M-05-74 (antibody, V domains shown)
VH: QVQLQQSGAELAKPGASVKMSCKTSGYTLTDYWIHWVKQRPGQGLEWIGYINPYTGYTESNQKFKDKATLTADKSSNTAYIQLSSLTSEDSAVYYCARPYYYGDYWGQGTTLTVSS
VL: QIVLTQSPAIMSASPGERVTITCSASSSVSYMHWFQQKPGTSPKLLIYSTSNLASGVPARFSGSGSGTSYSLTISRMEAEDAATYYCQQRSSYPFTFGSGTKLEIK
notes: murine monoclonal antibody from hybridoma (supernatant or purified); also called M-074; M-5-74
Consider B1, for which the “Molar Ratio MR” value with TtSlyDcys-Her3 came out at 1.9; with HER3 ECD-HRG complex it was 0.8; with TtSlyDcas, 0; in test [1] it was 0.1; with HER4 ECD-HRG complex, 0.8. In addition, in the test with TtSlyDcas, the binding result is on record as “no binding (tested: 90 nM)”.
